Assay results reported in patent US20240352105A1, “COMPOSITIONS AND METHODS FOR NEUTRALIZING ANTIGENS” (PACAGEN, INC, priority 2023, published 2024).
Several values for one entry are separate records, joined by “and”; a condition that tells them apart may be missing. Equal entries are not always repeated.

Tests used:
[1] = target: Can f2-sumo-His (dog (Canis familiaris)) (UniProt O18874); assay: serum ELISA, 1:1K, Alpaca 2 block
[2] = target: T1, recombinant His-tagged Der p2 (dust mite, UniProt P49278 18-146); assay: serum ELISA, 1:1K, Alpaca 2 block
T1 construct: also called Der p2-His; Der p2-HIS; not shown: His tag
T1 sequence (looked up): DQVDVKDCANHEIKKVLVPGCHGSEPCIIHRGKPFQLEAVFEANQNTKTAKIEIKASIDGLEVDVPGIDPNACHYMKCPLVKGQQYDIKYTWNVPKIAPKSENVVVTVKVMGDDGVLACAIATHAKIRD

[3] = target: recombinant His-tagged Can f1 (dog (Canis familiaris)) (UniProt O18873); assay: serum ELISA, 1:1K, Alpaca 2 block
[4] = target: recombinant His-tagged Can f2 (dog (Canis familiaris)) (UniProt O18874); assay: serum ELISA, 1:1K, Alpaca 2 block
[5] = target: Can f2-sumo-His (dog (Canis familiaris)) (UniProt O18874); assay: serum ELISA, 1:32k, Alpaca 1 block
[6] = target: recombinant His-tagged Can f1 (dog (Canis familiaris)) (UniProt O18873); assay: serum ELISA, 1:32k, Alpaca 1 block
[7] = target: Can f2-sumo-His (dog (Canis familiaris)) (UniProt O18874); assay: serum ELISA, 1:8K, Alpaca 2 block
[8] = target: T1, recombinant His-tagged Der p2; assay: serum ELISA, 1:8K, Alpaca 2 block
[9] = target: recombinant His-tagged Can f1 (dog (Canis familiaris)) (UniProt O18873); assay: serum ELISA, 1:8K, Alpaca 2 block
[10] = target: recombinant His-tagged Can f2 (dog (Canis familiaris)) (UniProt O18874); assay: serum ELISA, 1:8K, Alpaca 2 block
[11] = target: Can f2-sumo-His (dog (Canis familiaris)) (UniProt O18874); assay: serum ELISA, 1:2K, Alpaca 2 block
[12] = target: T1, recombinant His-tagged Der p2; assay: serum ELISA, 1:2K, Alpaca 2 block
[13] = target: recombinant His-tagged Can f1 (dog (Canis familiaris)) (UniProt O18873); assay: serum ELISA, 1:2K, Alpaca 2 block
[14] = target: recombinant His-tagged Can f2 (dog (Canis familiaris)) (UniProt O18874); assay: serum ELISA, 1:2K, Alpaca 2 block
[15] = target: Can f2-sumo-His (dog (Canis familiaris)) (UniProt O18874); assay: serum ELISA, 1:64K, Alpaca 2 block
[16] = target: T1, recombinant His-tagged Der p2; assay: serum ELISA, 1:64K, Alpaca 2 block
[17] = target: recombinant His-tagged Can f1 (dog (Canis familiaris)) (UniProt O18873); assay: serum ELISA, 1:64K, Alpaca 2 block
[18] = target: recombinant His-tagged Can f2 (dog (Canis familiaris)) (UniProt O18874); assay: serum ELISA, 1:64K, Alpaca 2 block

Chain of recombinant His-tagged Can f1 (dog (Canis familiaris)) (O18873 19-174 limits assumed): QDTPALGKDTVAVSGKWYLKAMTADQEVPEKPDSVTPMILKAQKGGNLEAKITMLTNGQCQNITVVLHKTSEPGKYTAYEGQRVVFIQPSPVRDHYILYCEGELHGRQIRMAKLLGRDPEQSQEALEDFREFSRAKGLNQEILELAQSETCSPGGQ
Chain of Can f2-sumo-His (dog (Canis familiaris)) (O18874 19-180): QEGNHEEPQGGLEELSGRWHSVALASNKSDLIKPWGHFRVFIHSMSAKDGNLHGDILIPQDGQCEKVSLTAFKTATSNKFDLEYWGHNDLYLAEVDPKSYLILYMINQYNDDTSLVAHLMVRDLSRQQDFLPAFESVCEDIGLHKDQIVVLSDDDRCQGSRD
Chain of recombinant His-tagged Can f2 (dog (Canis familiaris)) (O18874 19-180 limits assumed): as the sequence (O18874 19-180) above

**Q.** Which OD at 450 nm [1] does the source give for Negative serum taken from naïve alpacas here?
**A.** Its OD at 450 nm is 0.186 OD and 0.181 OD.

**Q.** What about the OD at 450 nm [2] of the same substance?
**A.** Its OD at 450 nm is 0.201 OD and 0.19 OD.

**Q.** What about the OD at 450 nm [3] of the same substance?
**A.** Its OD at 450 nm is 0.228 OD and 0.218 OD.

**Q.** What about the OD at 450 nm [4] of the same substance?
**A.** The OD at 450 nm was 0.227 OD and 0.241 OD.

**Q.** What about the OD at 450 nm [5] of the same substance?
**A.** The OD at 450 nm was 0.056 OD and 0.057 OD.

**Q.** What about the OD at 450 nm [6] of the same substance?
**A.** Its OD at 450 nm is 0.102 OD and 0.107 OD.

**Q.** And the OD at 450 nm [7]?
**A.** Its OD at 450 nm is 0.083 OD and 0.079 OD.

**Q.** And the OD at 450 nm [8]?
**A.** The OD at 450 nm was 0.101 OD and 0.103 OD.

**Q.** What about the OD at 450 nm [9] of the same substance?
**A.** Its OD at 450 nm is 0.108 OD and 0.111 OD.

**Q.** And the OD at 450 nm [10]?
**A.** The OD at 450 nm was 0.099 OD and 0.084 OD.

**Q.** And the OD at 450 nm [11]?
**A.** The OD at 450 nm was 0.119 OD and 0.113 OD.

**Q.** And the OD at 450 nm [12]?
**A.** Its OD at 450 nm is 0.152 OD and 0.15 OD.

**Q.** And the OD at 450 nm [13]?
**A.** The OD at 450 nm was 0.185 OD and 0.179 OD.

**Q.** What about the OD at 450 nm [14] of the same substance?
**A.** The OD at 450 nm was 0.143 OD and 0.133 OD.

**Q.** What about the OD at 450 nm [15] of the same substance?
**A.** Its OD at 450 nm is 0.07 OD and 0.057 OD.

**Q.** What about the OD at 450 nm [16] of the same substance?
**A.** Its OD at 450 nm is 0.071 OD and 0.079 OD.

**Q.** And the OD at 450 nm [17]?
**A.** Its OD at 450 nm is 0.088 OD and 0.087 OD.

**Q.** What about the OD at 450 nm [18] of the same substance?
**A.** The OD at 450 nm was 0.07 OD and 0.062 OD.
